Data on 1 molecule can be found in US20100034737A1 (published 2010).

This assay addresses T1, mouse JAM-C on the surface of GL261-233R (JAM-C rescued) and GL261-233RC (JAM-C knock-down) mouse glioma cells (mouse, UniProt Q9D8B7 30-310).
T1 construct: whole, on cells; also called JAM-C on the surface of glioma cells
T1 sequence (looked up): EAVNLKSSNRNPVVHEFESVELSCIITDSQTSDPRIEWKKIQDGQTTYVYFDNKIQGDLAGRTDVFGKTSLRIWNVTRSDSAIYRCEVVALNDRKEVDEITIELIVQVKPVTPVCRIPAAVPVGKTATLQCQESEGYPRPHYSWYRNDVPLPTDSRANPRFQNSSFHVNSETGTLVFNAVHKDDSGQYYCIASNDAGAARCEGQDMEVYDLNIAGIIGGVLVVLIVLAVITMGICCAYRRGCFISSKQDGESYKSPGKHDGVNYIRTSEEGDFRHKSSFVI
Briefly: flow cytometry of sJAM-B-Fc on GL261-233RC and GL261-233R cells (FIG. 22 A, B) and c-Src ELISA. The protocol:
Cells were then washed with PBS, 0.2% FCS and 0.01% azide and analysed.
Amounts of total c-Src protein and of active phosphorylated-c-Src were quantified using FACE c-Src ELISA kit (Active Motif, CA, USA). […] At day 2, cells were incubated 30 min on ice and then 20 min at 37° C. with recombinant mouse JAM-B/Fc chimera antibody (R&D, MN, USA) at a final concentration of 5 μg/ml. Cells were then fixed and analysed with c-Src ELISA following the manufacturer's instructions (colorimetric Assay for adherent cells).
(In general: In flow cytometry, cells or beads pass a laser one at a time.)

B1: Recombinant Mouse JAM-B/Fc Chimera (Fc fusion, UniProt Q9JI59 29-236, looked up)
chain: FSASKDHRQEVTVIEFQEAILACKTPKKTTSSRLEWKKVGQGVSLVYYQQALQGDFKDRAEMIDFNIRIKNVTRSDAGEYRCEVSAPTEQGQNLQEDKVMLEVLVAPAVPACEVPTSVMTGSVVELRCQDKEGNPAPEYIWFKDGTSLLGNPKGGTHNNSSYTMNTKSGILQFNMISKMDSGEYYCEARNSVGHRRCPGKRMQVDVLN
notes: extracellular domain; Bought from R&D; also called sJAM-B-Fc chimera; soluble JAM-B; not shown: Fc part, detected with anti-human Fc antibody
Consider B1, for which the binding result is given as “binds”.
